The DeepSol protein solubility set

Assay: soluble on expression in E. coli; label from the status in PepcDB or PDB records

**Q.** Which “soluble on expression in E. coli” value does the source give for “MIIMLSEYLEEFKEYLERFKNIDINFSDVLKMSKKFIIWRLKQIFGDSSTIFTNISSEITIFDKIFQMIDYDIDGEVEKRLPKDESRFMIGVRREKEIEIKKEIITNLLDFLLIILLSHTPYFNAFVRKYAEIKKIKVIKKLPNKISVWEFIKIASRSRINDLHLERLDLENGFVDITKIKEIFAKEIIRVELMKLGENIKKRKLPDDSVVKELLNEISDYLKDKVKYEQISGIKALNYKGNIPLEWHPPCIRGILNDILSGGSPSHYARRSFVVYWFCAKFNPNLRPLDKNGNLVNVSATDIASEEEIERFIDELIEMLFKNVEDFDEKKTRYYIMHNIGYKVGHGRLTHCEYCKNWQDDGGKGLSYYCKPDELCKKKFIIHPLDYLCYNINKHLKKERFKKIKKEDKNGDNKLEHHHHHH” here?
**A.** soluble

**Q.** For “MIIVSRAIVLHNTAYNDSYSIAHLFSRESGRVSYLIPRSSKRGKSGGSLRLLISPLNELEITAEHKQHRDLHFIKEAKLCSLHGRIQSDPVRNSIALFLAEFLYLILRLPEADTNLYDFVAFSIDKLEEMDGPMANFHLAFLFRLLVPLGLIPDLQFGGSVIPRWFDPADGRFVPNAPAHGRGIPPHQSTYLQLFSRITFDNMKAFRLSRAERRQVLDYLVDYYRFHLPPFPLLKTPDILSTLFD”, which “soluble on expression in E. coli” value is on record?
**A.** not soluble

**Q.** With “MIIVYTTFPDWESAEKVVKTLLKERMIACANLREHRAFYWWEGKIEEDKEVGAILKTREDLWEELKERIKELHPYDVPAIIRIDVDDVNEDYLKWLIEETKK” as the sequence, how does the “soluble on expression in E. coli” value read?
**A.** soluble

**Q.** With “MIIYTTPTALILEEQGERVEFDRRNGKVLEKPEESLEILDQDVVLCGNVEFLIGKISFDEQHFLFFVVDSSVVACYRGTSAESSHSIRRIERVIAINVKSDGSVIKSQITPGSGTKLKQGTEKIMKFFAEKVTKAEPRPALLDDVLKLFNDSKDFYFCRSRDVTISSQKYFEKREAHTSEDSFFWNKRMVGNLGEAKISDKFTCPIMQGYVATSQLEITDQINAYLTITIISRRSTRRAGARYLRRGIDEASNVANFVETELILNIFEHELSFVQCRGSIPVFWSQRGFKYRPPLIINRSVEETHGVFTEHFKRLKAHYDTPLVAVSLVDQRGRELPLAQRFLEHCVKADDNDVTFFSFDLHQHCRGLNFQKLQTLISSMEETLKTIGFCWVDKTGEVVQSQKGVVRTNCIDCLDRTNLVQGQISLFVVLQQAQRLGIFGPLCEPPEVLVQTMQTMWADNGDVISTQYAGTAALKGDVTRNGERKLMGVMKDGYNSASRYYLTHTKDAQRQKAINIVTGQTEADENAEEEENEKEEEENISRMVTETIQFLVPTQQTVIAGWGLINAFQSSDEIDTVVILTRSNLYIVTYEIDGEKMTDVQIVALEDINTIQTGTSGNNRQCARLETLEGVFIWRPSTVRLFNNTAIRLKSLEEANEYISSVAEQIQVGRNMLTGAEGSVVPVAKITIPQMSVHRKSMAAMGALFGKIKRVGKPSSLSKSASTISTAQLPETDGNESDASQKSDHLMTKILKMSQFKSDSPQPEPFSSLLPAISECQTKISLL” as the sequence, how does the “soluble on expression in E. coli” value read?
**A.** not soluble

**Q.** Which “soluble on expression in E. coli” value does the source give for “MIKDYLIETMNQDEVNLAITWAAQEGWNPGIHDATCFYQTDPHGFFAGKLNGKTIAIGSAVIYDDFFAFCGFYIVDKSYRDQGYGLELTKARLAYIGNRNAGIDGVINMLDKYARIGYQLAHNNARYCLNKTIKPISSEPHIVPLNQIDFSQLSSYDRLHFPAPRPQFLKCWINQPQSLALAYLIDGQIKGYGVIRTCHKGFKIGPLFAGTPEIAHQLFSNLVPYAKGQLIFLDIPENNPLAIELVSQYQMKKVFATARMYLKGEPPVKKESIYGITTFELG” here?
**A.** not soluble

**Q.** With “MIKEFCAENLTLLPTLDAGQISRVELCDNLAVGGTTPSYGVIKEACQLLHDKKISVATMIRPRGGDFVYNDLELKAMEEDILKAVEAGSDALVLGLLTTENQLDTDAIEQLLPATQGLPLVFHMAFDRIPTDHQHQALDQLIDYGFVRVLTHGSPEATPITDNVEQLKSLVTYANKRIEIMIGGGITAENCQSLSQLTGTAIVHGTKII” as the sequence, how does the “soluble on expression in E. coli” value read?
**A.** not soluble

**Q.** With “MIKFMSIASGSSGNCYYLSNGNQALLIDAGIPLRSISKALKDHQLPIEGNVVGVLVTHDHADHIRTIGCLGEKFHLPVFATERVHNGINSSRYMDHLPLLSRRNILQEETFRLAGFDITAFPIPHDATENVGYHITAPGFSFTLCTDVGHITDTISHYASKADYLVMEANYDCEMLLSGPYPEFLKERVSGPNGHLSNQETGDFLARTFHPGMKHVWLCHLSKDNNHPDLCWKSIEYRLFSEGIRVGKDMELTVLKRTSPSSLYTLLEDLEHHHHHH” as the sequence, how does the “soluble on expression in E. coli” value read?
**A.** soluble

**Q.** Which “soluble on expression in E. coli” value does the source give for “MIKIPQAGRDLETIAVIGAGTIGSAISISLAKAGYHVISTRRRPDLNAGLKAYGITVTSDNVQAVTSADMVILTLKPADLVSEMKKLSQILEGKIVVSMAAAVPIRVIRHILPRSFIVRSMTNIAAEVNAGYTPFCTLEEDEGKISFVSRVLGVFGETERVDEKYMDALTAL” here?
**A.** not soluble

**Q.** Which “soluble on expression in E. coli” value does the source give for “MIKKVLIANRGEIAVRIIRACKEMDIETVAIYSEADKESLHVQIADEAYCVGPTISKESYLNLTNIISVAKLTGCDAIHPGYGFLAENADFAELCRECNLIFIGPSPEAISKMGTKDVARDTMKEAGVPIVPGSQGIIKNTEEAIELANQIGYPVIIKATAGGGGKGIRVARHEEELVKGIQITQQEASTAFGNPGVYLEKYVEDFRHVEIQIMADTHGNAIHLGERDCTIQRRLQKLLEESPSPALDENVRKQMGEAAVKAAVAVDYTGAGTVEFIYEYKTKSFYFMEMNTRIQVEHPVTEMVTGVDLIKEQILVASGEKLSLQQEEVQFNGWAIECRINAENPAKKFMPSPGKVEMYLPPGGFGIRVDSAVYPGYSIPPFYDSMVAKLIVHGKTREEAIAKMKRALSEFVVEGVHTTIPFHLQLLDHPDFVKGEFNTKFLEEHELVTQ” here?
**A.** not soluble

**Q.** Which “soluble on expression in E. coli” value does the source give for “MIKLAPAGLKDDIEMRKVYAGFIAGQIEAGSPIIALEADLMSSMAMDSVARDYPQHVINCGIMEANVIGTAAGLALTGRKPFVHTFTAFASRRCFDQLFMALDYQRNNVKVIASDAGVTACHNGGTHMSFEDMGIVRGLAHSVVLEVTDAVMFADILRQLMDLDGFYWLRTIRKQARSIYAPGSTFTIGKGNVLREGDDITLIANGIMVAEALEAARQLEQEGVSAAVIDMFTLKPIDRMLVKNYAEKTRRIVTCENHSIHNGLGSAVAEVLVENCPVPMRRVGVKERYGQVGTQDFLQKEYGLTAEAIVEAAKSLL” here?
**A.** not soluble

**Q.** With “MIKLFTDSDLDGIGCGLLAKLAFAEVNISFCSYRNLDERVVQFLQSDEANGAMLFITDLAVGKEVEQQLAERAARGGHVQVIDHHVTALHFNDYPWGQVVPVRDDGKKTCATSLFYDYLVREGKLAPNETLDGFVELVRQYDTWEWEENGNLQAKRLNDLLTIFGLDGFWETMSERLASREPFSLTETEELLLDMEEKKIQRYIRQKQKQLVQRWLGDYCIGVVFAERHLSELGNALSKRYPHLDLIALVNMGTKHIGFRTIHDDVNVAEFAQQFGGGGHPKASGCLIDDTTFPLFVVETFPLLPVYGDAEQNQLNKKDEAEGVFWTNHHGQWWLSRKTAQGWSVYADGGETHTFPEEIAGERWLKRQFAAGLAHDAAVLDFLSVRLGRDKDAIQADYKAAVKQYKQQTGIES” as the sequence, how does the “soluble on expression in E. coli” value read?
**A.** not soluble

**Q.** Which “soluble on expression in E. coli” value does the source give for “MIKPVGSDELKPLFVYDPEEHHKLSHEAESLPSVVISSQAAGNAVMMGAGYFSPLQGFMNVADAMGAAEKMTLSDGSFFPVPVLCLLENTDAIGDAKRIALRDPNVEGNPVLAVMDIEAIEEVSDEQMAVMTDKVYRTTDMDHIGVKTFNSQGRVAVSGPIQVLNFSYFQADFPDTFRTAVEIRNEIKEHGWSKVVAFQTRNPMHRAHEELCRMAMESLDADGVVVHMLLGKLKKGDIPAPVRDAAIRTMAEVYFPPNTVMVTGYGFDMLYAGPREAVLHAYFRQNMGATHFIIGRDHAGVGDYYGAFDAQTIFDDEVPEGAMEIEIFRADHTAYSKKLNKIVMMRDVPDHTKEDFVLLSGTKVREMLGQGIAPPPEFSRPEVAKILMDYYQSINS” here?
**A.** soluble

**Q.** Which “soluble on expression in E. coli” value does the source give for “MIKTAQSVGELTRAIKNELESLFPFVRVKGELSNVKQHSSGHVYLTLKDSEAQIPAVIWKSVRARSPLELRDGLEVIAEGRLEVWPPAGRYQLICTALFETGEGEQRLALERLIAKLAKAGWFDAERKKPIPRIPRRIGMITSPTGAVIRDMSDVFARRFPAAELLLYPVQVQGERAVESIVRALRYFNDPPKPEHKPDVLIVARGGGSSEDLQAFNDEAVAEAIYRSAIPVISAVGHETDLSVADMVADLRAGTPSIAAERAVPDREELLRLIDNLVNRQSILMEGLISGAQLQVDSITSSYAFNRPVQMLGQFEERLALMEKEMKRAIAEKVRDREQQLTAAADRLAMLDINRTLKRGFALVTQDDRYVTSAKSLEADAKIGLTFHDGQREARVTE” here?
**A.** not soluble

**Q.** For “MILAIDLGTSGAKAAIIDSAGAVHEQTFVPYSTTKLPNGGVEQDPMQWVSAARQAVTRLPRSYSVVSFTGQMQDLICLDRAGRPLGQALLYNDARAAAEAARLNTVVPEWKDITGNRQTATSTAAMWLRLMEQSD”, which “soluble on expression in E. coli” value is on record?
**A.** not soluble

**Q.** With “MILHGFHLSTSSHCLPFIFRHLFIFHSITALCDHMLSKFVVVEVSNSNNTMTLVEYLVTHGFDKFAVVTDLVDHPSFKYKDGSSSPESPSTTASTAAQHTPPRTAVSTPTSINTPVPPHQNKQRHSIDKIAANLSTKKVSPSSIEKQLQRTSHNPLHQLSTPHALSQLQKLLEEQHKINQMNIQKKEQERQQAEIQRILLQQANAAQINHSFGLERLTPEYDDNHHSETISKASSEDLKTEPDSTDFGLGTSDDQVRASMLHLLHPVFAPAFGMLDAENIFGAASKPTTPASKRRNTDSNGAPSKKHRWLPVNELEESRSSRGKNCGRVHCKATYKCALCGKPTTLNSTGSRWNLLRHVIMIHSDCKPYKCWDCDFTGIKSNVISHARQCRHNAEDAHDITTDEMRAEWNLRLHECFPDYVRAKERGWQPEEVTVKKEEVEESPTLVKQELTLVKQEPTFAEQLEPMAQPLV” as the sequence, how does the “soluble on expression in E. coli” value read?
**A.** not soluble

**Q.** For “MILKRAYDVTPQKISTDKVRGVRKRVLIGLKDAPNFVMRLFTVEPGGLIDRHSHPWEHEIFVLKGKLTVLKEQGEETVEEGFYIFVEPNEIHGFRNDTDSEVEFLCLIPKEGGE”, which “soluble on expression in E. coli” value is on record?
**A.** not soluble

**Q.** For “MILTTSRKPSQRTRSFARDLERTLNIPYVQRGKLSLKEIFEIDKHVLLIGEFKANPGTLVVYDVENEKRLSSFISVKLQREICGEKIYNDDGIRIKISRELKDNEEFQKYYEIYDEFLFQHLNINEDSDITLRLEKDPKYLFAIQFYKGRVKIGPLIRIKSIKLFDSLLLEHHHHHH”, which “soluble on expression in E. coli” value is on record?
**A.** soluble

**Q.** Which “soluble on expression in E. coli” value does the source give for “MILVIDVGNTNTVFGVYDGKKLLNHWRMETSKGKTSDEYGMFIVSLLSYEKIDVGKIEAVVIASVVPPIMYSLEHAIRKYFKLEPMVVGPGIKTGINIKYENPREVGADRIINAVAALELYGGPLIIVDFGTATTFCAVSSKGEYLGGVICPGIKISAEALFQKTAKLPKIDLVKPETVIGRNTVSSMQSGIIYGYVGEVDYIVRRMKKEMKEDNIKVIATGGLARLIASESETIDEINGLLTLEGLRIIYERNK” here?
**A.** soluble

**Q.** Which “soluble on expression in E. coli” value does the source give for “MINTNLSSNESSAVYIHIPFCEHICYYCDFNKVFLEGQPVDEYVDLLIKEMELTVAKGPIAPVDTVFVGGGTPTTLNEAQIARLCTAIHNTLPLKKDIEFSFEANPGDLSLSKLQAMQDHGVNRISMGVQSFNNELLKKIGRIHTVKDVYQSVENMRKIGFENVSIDLIFSLPGQTEADFQDTLKQALDLDLPHYSAYSLIIEPKTIFYNLMQKGKLFLPGQDAEANMYDLLLNEMEKHGRKQYEISNFAKEGFQSKHNITYWSNEHYYGFGAGAHGYVGNTRYSNFGPIKKYMEPLQENILPTFQQKELTLKEKMEEEMFLGLRKVDGVDKKHFKQKFGQDLDATFANAIQKTTAKGWLENNEENVALTRSGRFLGNNVFQEFL” here?
**A.** not soluble

**Q.** For “MIPGEYRLREEPIVCNRQKSATKLTVVNRGDRPVQVGSHFHFFEVNSFLEFDRQAAYGKHLNIPAGTAVRFEPGDAKQVELVPFSGERRVYGLNNMVNGPLDGNGKGGVRE”, which “soluble on expression in E. coli” value is on record?
**A.** soluble

**Q.** For “MIPSQISFNTLPVNATYASETTVDTQKFSDILYSAGCSLKDMAYLSRCLASIHPTLAKNIYETENLSDQKLLHIDCRSTNEIKINIFFGQQREGLIEINSDTVIFSILSSLIDSAISKFQHQIPVNGSVNRELLYEDYTD”, which “soluble on expression in E. coli” value is on record?
**A.** not soluble
